B1: CD63 antigen-like (CD63) tetraspanin, His tag removed (natural protein)
chain: KGNAEALVQKQLYETMQLYTHDVVVTRLWDEVQEDFSCCGVNNASDWLAPLGTANTDQGLPLSCCQFPFGTITVFNCTMATPAPTLRTEGCSTAFGAWVQSHAGS
modifications: Wild-type trypsin-activated core; the text prints neither the Cry1F subtype nor the limits. Cry1Fa assumed, with the conventional tryptic core 28-612.
B2: C-type mannose receptor 2-like (C-MR2), His tag removed (natural protein)
chain: SELNTSKSNWFRPDYSYSERTGGWFKFHSVPATWEDARLQCYYEGAELVSPFNENIIQKMIMLMDVNEPYIFTGIHSTFSKGVYTSVGGVPLHEMPVSLHSRDVSGNCVTMRSNGRVEARNCSSQYPYICFKKGPEHLTSSVCGADQEYKYEQRTGSCYKFHTLGRTWPQAFRVCVAEGGHLAIINSDVEADVIRGIFQNYPDDAFKADAKYAASIGFQGWGAVKIWWTIHGQTLQDAGYSKWDKFVPDMRSTRHYCGAVGRNGTLSHIECEGVTFPAICEKKADLV
modifications: Wild-type trypsin-activated core; the text prints neither the Cry1F subtype nor the limits. Cry1Fa assumed, with the conventional tryptic core 28-612.
B3: hemolymph lipopolysaccharide-binding protein (LBP), His tag removed (natural protein)
chain: QKRYRNDYVYDANTDAFYKFHVNMAVHWRALTICKLEGATLMVPTSVQQIAQVHGMFKQYPDIGHYVWIGDDNADHESAEETPIIDLQPEVETEAPWERRCLVLTRRGEIQTQNCRYYQSFVCMVEAKNAPYDHRCDVYAAGYEYNTDVKSCYKIPRDIKTWNAAYAECQAHGAHLVVVNSVTERDVLQALMSRTPYLRTSFSPYHYIAGIRATSVIGSEVVYRTIFNETLEEAGFSEWADNEPNNQQGIEYCGSLHQRSGKYNDISCLSSFGYICEKERNE
modifications: Wild-type trypsin-activated core; the text prints neither the Cry1F subtype nor the limits. Cry1Fa assumed, with the conventional tryptic core 28-612.
B4: C-type lectin lectoxin-Phi1-like (C-lectoxin), His tag removed (natural protein)
chain: DVPKDYIVNPNDSHGYKLMYHAKTWTEARDDCANVGAKLAVPKTRDQFEFIQKIVRSMQYQSIVGTEYKLLVWLGISNLKNYQVWANVDGENIEDTEFHTWAGQNGLKSENPAEPHCVGMDSMNFGLRDWWCHQRQPYICEILTVQNATQ
modifications: Wild-type trypsin-activated core; the text prints neither the Cry1F subtype nor the limits. Cry1Fa assumed, with the conventional tryptic core 28-612.

Each binder was assayed against Trypsin-activated Cry1F toxin from Bacillus thuringiensis (Bacillus thuringiensis, UniProt Q03746 1-1174) (assay: SPR; Biacore 8K; activated Cry1F immobilised on a CM5 chip (10 mM sodium acetate pH 4.0); analytes without His tag in 10 mM HEPES, 150 mM NaCl, 3 mM EDTA, 0.005% Tween-20, pH 7.4; 30 uL/min, association 120 s, dissociation 280 s; 1:1 binding model). Details: both partners purified.
Trypsin-activated Cry1F toxin from Bacillus thuringiensis, sequence (Q03746 28-612 limits assumed): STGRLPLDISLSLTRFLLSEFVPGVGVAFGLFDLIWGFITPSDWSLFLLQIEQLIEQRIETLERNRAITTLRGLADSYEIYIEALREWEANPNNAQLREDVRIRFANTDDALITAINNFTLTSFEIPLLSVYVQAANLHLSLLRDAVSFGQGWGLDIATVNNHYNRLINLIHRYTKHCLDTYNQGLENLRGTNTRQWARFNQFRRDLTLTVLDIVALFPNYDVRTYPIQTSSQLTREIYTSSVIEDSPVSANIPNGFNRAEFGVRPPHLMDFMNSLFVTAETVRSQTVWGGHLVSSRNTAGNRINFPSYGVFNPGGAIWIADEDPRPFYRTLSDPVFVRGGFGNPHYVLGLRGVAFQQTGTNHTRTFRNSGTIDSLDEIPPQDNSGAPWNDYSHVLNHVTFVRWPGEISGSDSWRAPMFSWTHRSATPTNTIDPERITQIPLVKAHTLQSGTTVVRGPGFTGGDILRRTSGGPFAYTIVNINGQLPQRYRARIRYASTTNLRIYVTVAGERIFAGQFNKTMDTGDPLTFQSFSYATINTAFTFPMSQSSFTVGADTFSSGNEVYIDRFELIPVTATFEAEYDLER
Binder B1 has a Kd of 0.294 µM, a koff of 0.00474 s⁻¹ and a kon of 16100 M⁻¹ s⁻¹.
In the case of B2, the Kd is reported as 0.0221 µM, the koff is reported as 0.0041 s⁻¹ and the kon is reported as 185000 M⁻¹ s⁻¹.
Binder B3 has a Kd of 0.119 µM, a koff of 0.00294 s⁻¹ and a kon of 24700 M⁻¹ s⁻¹.
B4 showed a Kd of 0.0466 µM, a koff of 0.00513 s⁻¹ and a kon of 110000 M⁻¹ s⁻¹.

From article PMC9714555, “Hemocyte response to treatment of susceptible and resistant Asian corn borer (Ostrinia furnacalis) larvae with Cry1F toxin from Bacillus thuringiensis” (Frontiers in Immunology, 2022)
